Experimental data as given in article PMC6346578.

Key:
[1] = target: T1, SACE_5754 (TetR family regulator) (Saccharopolyspora erythraea A226?) (UniProt A4FLL4); assay: DNase I footprinting; details: EMSA: 10 mM Tris pH 7.5, 5 mM MgCl2, 60 mM KCl, 10 mM DTT, 50 mM EDTA (so in the source), 10% glycerol, 30 C 10 min, 20 uL; 6% native PAGE, 1x TAE. Footprinting: …
T1 sequence: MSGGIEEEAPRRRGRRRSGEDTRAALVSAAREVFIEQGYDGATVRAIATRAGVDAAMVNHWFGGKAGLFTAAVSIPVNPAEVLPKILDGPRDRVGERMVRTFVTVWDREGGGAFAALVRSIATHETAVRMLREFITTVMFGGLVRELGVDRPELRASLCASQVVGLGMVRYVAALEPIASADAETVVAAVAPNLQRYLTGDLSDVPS

[2] = target: T1, SACE_5754 (TetR family regulator) (Saccharopolyspora erythraea A226?); assay: EMSA; details: EMSA: 10 mM Tris pH 7.5, 5 mM MgCl2, 60 mM KCl, 10 mM DTT, 50 mM EDTA (so in the source), 10% glycerol, 30 C 10 min, 20 uL; 6% native PAGE, 1x TAE. Footprinting: …

Question: With “GGTGGCTTCTGGCGTGCTCATAACGCGTTCAGCGTATCCAGTCGGCTTCCGCCCTTGACCGGCGAGTCCCGGCAGGGCACCCTGAAGTTATTCAACATGCGTTGAAAACTTGGAGGATCGCGATGGAGCGAACGACGTGTTGC (double strand) [P6148-6149]” as the sequence, how does the binding [1] read?
Answer: binds

Question: What about the binding [2] of the same sequence?
Answer: binds

Question: “CATCGTGCCCAGCCAGTCGAGGAGTGCGGTTTCGTCGGCCATGCCGGGAACTTCGTCGATGGTGGTCAACGTTCTCCTCGCGCAGCAGGTCGTTTCCACGTCGGCGAACACGCGTCGCGATCTTGAGCTTAGTCGCGCGCCGGACGGGGTGTCGAGACTTCCGCGGTGGCGGTGGGAACAGTGAGCACGGCGTCGAACGCGTCGCGCAGCGGCGTCCGCATCCACGTGCTCTGGGAGCGGATCCGGTCC (double strand) [PeryK]” was tested. Which binding [2] did it give?
Answer: no binding

Question: With “CGGACCGGAGTTCGAGGTACGCGGCTTGCAGGTCCAGGAAGGGGACGTCCATGCGAGTGTCCGTTCGAGTGGCGGCTTGCGCCCGATGCTAGTCGCGGTTGATCGGCGATCGCAGGTGCACGCGGTCGATCTTGACGGCTGGCGAGAGGTGCGGGGAGGATCTGACCGACGCGGTCCACACGTGGCACCGCGATGCTGTTGTGGGCTGGACAATCGTGCCGGTTGGTAGGATCCAGCGGTGAGCAGTTCGGACGAGCAGCCGCGCCCGCGTCGCCGCAACCAGGATCGGCAGCAC (double strand) [PeryCI-ermE]” as the sequence, how does the binding [2] read?
Answer: no binding

Question: For “GGCGGGCAGGAAATCAACACTTGTTGAATTACGGTCGCGCACGCGCTCCGCGATCGCGCGGACACTTACCGCTTCGGGCGGAAATGCATTGCAAGCAAAGAAGATTGGGCCGTTCGGCGGCATCCGGGCCGAGTGGTCAAGCGCACAGAGAACTGAGTTGCCCGCGCCCGTCCGTGCGATGCATGCTTGCGTCCAGCAACTAGTTGGTTGCTGCAATCAAATCGGTTGCGCTCGCCGGGGG (double strand) [Probe 1]”, which binding [2] is on record?
Answer: binds

Question: What does the source list for “TGCCCGAAAGGTAACCCCGCGGCGGGCAGGAAATCAACACTTGTTGAATTACGGTCGCGCACGCGCTCCGCGATCGCGCGGACACTTACCGCTTCGGGCGGAAATGCATTGCAAGCAAAGAAGATTGGGCCGTTCGGCGGCATCCGGGCCGAGTGGTCAAGCGCACAGAGAACTGAGTTGCCCGCGCCCGTCCGTGCGATGCATGCTTGCGTCCAGCAACTAGTTGGTTGCTGCAATCAAATCGGTTGCGCTCGCCGGGGG (double strand) [P0388-0389]”?
Answer: binding [1]: binds; binding [2]: binds

Question: Which binding [2] does the source give for “CTGTGCAGTACCTGGAGGGCGGACCCTCCGGACGCGGGTTGTTCGTCGGTGTGCGCGGATGACCCGTGCGTTCGCGTTTTCCGTTCCTGGCACAGGTGATCCGCTCCACGGGCCCTTTCCCCGCCGTGACCGGACCCTTACAGTGAGTGCGGGTCTTGATCGACAACGCCCGGCGGCAGCAAGCGGAGCCGTCGACGACACCGCAGGGAGAGTCGATGGGTGATCGGACCGGCGACCGGACGATTCCGGAATCCTCGCAGACCGCAACGCGTTTCCTGCTCGGC (double strand) [PeryBVI]” here?
Answer: no binding

Question: For “TCACCACCTGAAACCGCCACCGTTTTCCCGGAATCCGGCCACCGGAACCGGACCGGCCGAAATGGACATTCCGCCACGGTGCCGCGGGCGCCACCCGCACGCACGTTGAATTCAACACATGTTCAACAGCGTCGGAGGCGGGGATAATCGAACCCTGAGCGCCCGCCGAGCGTTCGCCACGGCCGCCATCGTCCGCGTGAGGAACCCATGACCAAGCA (double strand) [P3599]”, which binding [1] is on record?
Answer: binds

Question: And the binding [2]?
Answer: binds

Question: Which binding [2] does the source give for “TCGGCGCCTCCTCCTCGATGCCACCGCTCACACCGCCATCCTCGCTGTCGGCCGCTTCGGGGTGCAAAGCCGGGCTGCGCGCGGCACCCGCCCTGGCGGACGGCACAATTGGGGCATGGTGGGCGGCGACATCGGCAAGATCAGTC (double strand) [P5753-5754]” here?
Answer: no binding
